Measured values taken from patent publication US20180215829A1 (CRESCENDO BIOLOGICS, published 2018).

Tests used:
[1] = target: T1, human IL-17RA on HT1080 cells (human, UniProt Q96F46 33-866); test: cell-based or functional assay
T1 sequence: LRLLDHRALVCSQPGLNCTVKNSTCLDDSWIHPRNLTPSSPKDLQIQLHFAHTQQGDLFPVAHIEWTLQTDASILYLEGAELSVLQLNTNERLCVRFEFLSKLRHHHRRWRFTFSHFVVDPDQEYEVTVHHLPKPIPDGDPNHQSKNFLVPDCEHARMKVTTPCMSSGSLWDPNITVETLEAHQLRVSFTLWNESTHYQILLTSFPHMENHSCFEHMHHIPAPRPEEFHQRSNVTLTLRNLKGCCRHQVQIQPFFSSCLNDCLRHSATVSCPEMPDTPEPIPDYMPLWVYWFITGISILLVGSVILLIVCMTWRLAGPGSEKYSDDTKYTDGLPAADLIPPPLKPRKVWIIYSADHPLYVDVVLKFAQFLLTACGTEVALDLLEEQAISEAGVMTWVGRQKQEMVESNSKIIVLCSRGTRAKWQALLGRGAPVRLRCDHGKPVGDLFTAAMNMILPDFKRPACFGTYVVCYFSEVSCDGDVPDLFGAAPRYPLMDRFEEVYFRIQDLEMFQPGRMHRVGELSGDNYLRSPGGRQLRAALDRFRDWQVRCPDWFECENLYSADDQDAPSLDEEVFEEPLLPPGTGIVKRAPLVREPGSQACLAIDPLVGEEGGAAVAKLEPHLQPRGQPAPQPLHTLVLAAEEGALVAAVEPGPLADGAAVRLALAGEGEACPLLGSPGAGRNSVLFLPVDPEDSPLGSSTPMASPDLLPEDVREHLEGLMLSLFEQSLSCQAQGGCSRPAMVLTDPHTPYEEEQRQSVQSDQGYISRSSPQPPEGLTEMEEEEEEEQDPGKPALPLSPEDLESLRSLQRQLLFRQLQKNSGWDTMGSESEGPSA

[2] = target: T1, human IL-17RA on HT1080 cells; test: cell-based or functional assay; remark: listed apart in the source
[3] = target: T2, recombinant human IL-17RA Fc fusion protein (R&D Systems 177-IR-100) (human, UniProt Q96F46 33-320); test: affinity against parent clone 2.1; method not given
T2 construct: Bought protein; not shown: Fc domain of human IgG1
T2 sequence: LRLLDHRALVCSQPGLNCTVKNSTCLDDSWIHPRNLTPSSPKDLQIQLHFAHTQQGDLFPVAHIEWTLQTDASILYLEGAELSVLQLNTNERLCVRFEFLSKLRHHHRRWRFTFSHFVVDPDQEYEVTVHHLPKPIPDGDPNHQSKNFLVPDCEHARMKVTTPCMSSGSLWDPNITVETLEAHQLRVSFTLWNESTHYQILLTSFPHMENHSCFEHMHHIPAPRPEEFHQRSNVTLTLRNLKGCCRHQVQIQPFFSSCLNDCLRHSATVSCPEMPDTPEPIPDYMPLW

[4] = target: T2, recombinant human IL-17RA Fc fusion …; test: BIAcore T200 single-cycle kinetics, IL-17RA-Fc captured on protein G chip, VH as analyte
Protocol: Binding kinetics of anti-IL-17RA VH antibodies were measured on a BIAcore® T200 instrument. For IL-17RA, first a protein G chip was prepared by diluting protein G to 20 ug/ml in acetate buffer, pH 4 (BIAcore®, cat# BR-100-49) and then coupled 1200 RU to a CM5 Series S chip using amine coupling chemistry. This surface was then used to capture IL-17RA Fc fusion protein from solution: IL-17RA at 10 ug/ml in HBS injected for 10 seconds at 30 ul/min flow rate would capture approximately 100-150 RU of IL-17RA onto the protein G surface.
Binding kinetics of anti-IL-17RA VH antibodies were determined by single-cycle kinetics. VH antibodies were prepared in dilution series (typically 1:3 dilution series starting with 100 nM VH at the highest concentration), and then injected over the antigen coated surfaces and also a blank surface, starting with the lowest concentration of VH and then working progressively up to the highest concentration. VH binding kinetics were then determined from the (blank subtracted) sensorgram traces using 1:1 binding models and BIAevaluation software.

[5] = target: T2, recombinant human IL-17RA Fc fusion …; test: receptor/ligand biochemical inhibition ELISA: VH competes with 1 nM IL-17A for coated IL-17RA-Fc
Protocol: VH, both purified and crude periplasmic extracts, were also tested for their ability to inhibit the interaction of IL-17A with recombinant IL-17RA-Fc. […] Following washing of excess coating antigen, as described above, the wells of the plate were incubated with 3% Marvel/PBS to block non-specific protein interactions. VH preparations, crude periplasmic extracts or purified VH, or suitable controls, were prepared with 1 nM recombinant IL-17A (Peprotech, cat# AF-200-17) in 3% skimmed milk powder/PBS solution in polypropylene plates or tubes. The mixture was then transferred to the assay plate and incubated for 1 hour at room temperature. Excess protein was removed by washing and bound IL-17A was detected by incubation with biotinylated anti-IL-17A Mab (R & D Systems, cat BAF317) followed by the addition of neutravidin-HRP (Pierce, cat#31030) and TMB substrate (Sigma, cat# T0440). The TMB reaction was stopped by addition of 0.5M H₂SO₄ and absorbances were measured at 450 nm in a plate reader.

B1: VH clone 2.2 (VHH)
VHH: QVQLVQSGAEVKKPGASVKVSCKASGYPFTSYDINWVRQATGRSLEWMGWMNPTNGNTVYAQKFQDRVTMTRNTSISTAYMELSSLRSEDTAVYFCARGRRDDWKNNYWGQGTLVTVSS
notes: Human VH single domain antibody, no light chain; Optimised variant of clone 2.1; also called VH 2.2
IC50 (nM), cell-based assay [1]: 165 nM
Cell assay IC50 [2]: 61 nM
fold improvement in affinity against clone 2.1 [3]: 10 fold
Kd [4]: 1.4 nM
koff [4]: 0.000799 s⁻¹
kon [4]: 579000 M⁻¹ s⁻¹
IC50 [5]: 1.4 nM
